From the supplement of paper PMC9732359
± gives the uncertainty stated by the source.

Assay: protein stability index of a GFP-peptide fusion (yeast GPS) (PSI 1-4); higher = more stable; sorted into four equal gates, so the index is relative within each strain
In short: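 Plasmids in a pooled yeast library fused tiled 17-residue yeast protein peptides downstream of GFP and also expressed Cherry. Mid-log cultures grown without leucine were sorted into four equal gates by GFP/Cherry fluorescence ratio. Each gate's plasmids were PCR-amplified and Illumina-sequenced, and reads were matched to strains by barcodes. The protein stability index is derived by multiplying each gate's read frequency by its gate number and summing the results.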

Sequence	protein stability index (doa10∆)	protein stability index (pdr5∆)	protein stability index (san1∆)	protein stability index (ubr1∆)
TLSNAERAKNVNGLLQV [GAL11]	3.22 ± 0.14	3.23 ± 0.1	3.08 ± 0.26	3 ± 0.098
LQAQLDYLNAELGEFFV [FAS2]	3.06 ± 0.18	–	2.94 ± 0.17	3.18 ± 0.16
ENDEEDIYMHDVNSASK [RRP4]	3.47 ± 0.098	3.47 ± 0.095	3.01 ± 0.095	3.31 ± 0.059
GVQSNGDQFLRYVNLLG [PRE4]	2.6 ± 0.073	2.51 ± 0.05	2.17 ± 0.063	2.31 ± 0.036
ILSEILCQINKCSTRGL [YML103C/NUP188]	1.31 ± 0.088	1.55 ± 0.084	1.98 ± 0.097	2 ± 0.057
MVLRKQKRYTVKKALAK [RPL14A]	2.08 ± 0.14	2.13 ± 0.1	–	1.55 ± 0.19
KLRAARAKAMKFADGFL [RPS3]	3.3 ± 0.17	3.03 ± 0.14	2.44 ± 0.29	3.16 ± 0.065
GRRWNELRRFESSINTH [SKI6]	–	2.66 ± 0.12	2.01 ± 0.13	2.41 ± 0.13
ASYLTPLLEAKKLVWPL [SSN2]	2.13 ± 0.14	2.04 ± 0.066	2.86 ± 0.15	2.71 ± 0.084
KREGRNELQEERLKVPI [POP6]	–	3.37 ± 0.2	–	–
NRKVLQALEKIGIVEIS [RPS19A]	2.34 ± 0.1	2.27 ± 0.1	2.24 ± 0.074	2.31 ± 0.07
ATGKKSRGINKGHKFNN [RPL15A]	2.5 ± 0.24	2.69 ± 0.13	2.34 ± 0.12	2.17 ± 0.13
SSGDFDDNNNNNNNNNN [GRR1]	3.11 ± 0.06	3.18 ± 0.057	3.22 ± 0.063	3.04 ± 0.046
SPIGFTNSPQISVTRQV [SMC2]	2.92 ± 0.052	3.09 ± 0.047	2.95 ± 0.043	2.79 ± 0.034
SIAEEIPIAIVLKACGI [RET1]	1.61 ± 0.056	1.49 ± 0.049	1.31 ± 0.089	1.66 ± 0.049
KPELRKKVMPAIVVRQA [RPL23A]	2.83 ± 0.14	2.87 ± 0.086	2.61 ± 0.16	2.97 ± 0.063
MKDKEINIQKYNNNTIR [CSI1]	2.42 ± 0.22	2.4 ± 0.15	–	2.52 ± 0.1
VSTAAAATVRSTIRRLR [RPL43A]	2.54 ± 0.076	2.8 ± 0.07	2.13 ± 0.1	2.95 ± 0.057
EINSVGNPGLPQYQYQR [ITC1]	2.66 ± 0.11	2.59 ± 0.077	2.92 ± 0.057	3.16 ± 0.067
EYSYVDSNMDSISSVVS [RPN4]	2.84 ± 0.075	3.26 ± 0.066	2.68 ± 0.076	3.05 ± 0.043
EPLAFYLEESFTNLGII [RGR1]	1.67 ± 0.063	2.18 ± 0.053	2.35 ± 0.071	2.57 ± 0.045
KADAQREKALNEEAEAR [RPL19A]	3.22 ± 0.083	3.45 ± 0.2	3.23 ± 0.081	3.33 ± 0.098
GKNVINRERFISKLFLR [SMD2]	2.85 ± 0.093	1.69 ± 0.067	1.73 ± 0.14	2.68 ± 0.12
SVFYNIANMVLPPEKIY [SIR2]	1.78 ± 0.048	1.77 ± 0.043	1.81 ± 0.06	1.55 ± 0.04
LESLKPIDDTMTLLTDS [MTW1]	3 ± 0.092	2.95 ± 0.054	3.04 ± 0.058	2.98 ± 0.046
QHYKNNSISSQPASYHS [SSN2]	2.56 ± 0.058	3.03 ± 0.067	3.05 ± 0.065	2.78 ± 0.057
EYKSLFVVGVDNVSSQQ [RPP0]	3.22 ± 0.055	2.79 ± 0.067	3.29 ± 0.091	3.24 ± 0.053

Sequence	protein stability index (doa10∆)	protein stability index (pdr5∆)	protein stability index (san1∆)	protein stability index (ubr1∆)
DLTRVYKAISAQADKQD [FAS2]	1.54 ± 0.054	1.72 ± 0.049	1.74 ± 0.1	1.75 ± 0.044
GFSFGSQLGGNKTVNEA [YJL041W/NSP1]	3.18 ± 0.072	3.23 ± 0.074	3.32 ± 0.048	3.22 ± 0.048
SPFLMGHPMTKSVYETP [SEC65]	2.28 ± 0.067	2.55 ± 0.068	2.83 ± 0.083	2.68 ± 0.052
SGGWGVPRKFKHFIQGG [RPL7A]	–	3.23 ± 0.18	–	–
PYTGWVDSKTKEPVDDK [FAS2]	3.05 ± 0.062	3.17 ± 0.069	3.05 ± 0.045	3.17 ± 0.053
MTLKEMYQMITMGGNAE [SMC4]	2.72 ± 0.065	2.41 ± 0.056	2.44 ± 0.058	2.77 ± 0.068
LSAENIEERLVAIAEQD [SCL1]	3.22 ± 0.083	3.18 ± 0.089	3.33 ± 0.061	3.32 ± 0.066
QFKKLTHAQRTGLSQIP [PRP8]	2.05 ± 0.11	2.46 ± 0.1	2.12 ± 0.14	2.53 ± 0.12
IQCQIDKLYIHFVQEEP [RGR1]	2.09 ± 0.093	2.55 ± 0.093	2.85 ± 0.083	3.15 ± 0.095
FGQASGASTGNANTGFS [YGL172W/NUP49]	3.18 ± 0.28	3.39 ± 0.17	–	–
AGENAPSIVFIDEIDAI [RPT2]	2.03 ± 0.17	2.46 ± 0.21	1.74 ± 0.18	1.86 ± 0.14
LTIDDLGVASFHGTSTK [FAS2]	2.99 ± 0.063	3.01 ± 0.071	3.03 ± 0.06	3.01 ± 0.047
SINVHSNNITSGLNRAI [RET1]	3.19 ± 0.1	3.24 ± 0.07	3.24 ± 0.052	3.17 ± 0.052
ELEKYNELERNRKIYQF [SMC3]	2.34 ± 0.099	2.35 ± 0.13	2.38 ± 0.14	2.67 ± 0.078
TFSWLNAELLDYLFHLL [YLR018C/POM34]	1.64 ± 0.075	1.47 ± 0.039	1.46 ± 0.14	1.4 ± 0.044
SDPMLQRTATLCLEKLM [YCS4]	1.47 ± 0.21	–	–	1.14 ± 0.17
FFNGKALNNAIPGGPKF [PRP8]	3.29 ± 0.13	3.02 ± 0.16	2.87 ± 0.17	2.94 ± 0.1
PMASSSSFGSESLTFNE [SWI1]	3.15 ± 0.043	3.16 ± 0.041	3.14 ± 0.035	3.099 ± 0.029
ILSNVDLAMANSLRRVM [RPB3]	2.75 ± 0.055	2.54 ± 0.047	2.66 ± 0.071	2.46 ± 0.037
LLVFRNADLDLDEMELH [YDL116W/NUP84]	3.01 ± 0.074	2.45 ± 0.073	3.01 ± 0.054	2.73 ± 0.047
KRPRSRTLTAVHDKILE [RPS7A]	2.06 ± 0.054	2.13 ± 0.052	2.25 ± 0.064	1.88 ± 0.041
LPSPESLKTKLNSNIRA [SNF5]	1.52 ± 0.048	1.71 ± 0.043	2.15 ± 0.061	2.1 ± 0.035
NEGVPSPMLSISNLTQE [FAS1]	2.84 ± 0.055	2.94 ± 0.062	2.96 ± 0.058	3.12 ± 0.059
MKLKLMIVYYKDAISFI [YCS4]	1.82 ± 0.053	1.49 ± 0.049	1.8 ± 0.091	1.73 ± 0.042
DNVVRFLNEARDKAGRL [RPO21]	2.48 ± 0.063	1.61 ± 0.056	2.56 ± 0.14	1.76 ± 0.053
LKEYQSKIIVFPRDGKA [RPL13B]	2.95 ± 0.082	3.17 ± 0.072	3.22 ± 0.048	3.17 ± 0.054
